Measurements taken from the supplement of paper PMC12783771.
± gives the standard deviation of the averaged measurements.

B1: library; a variant is named by its letters at X, in order (parent)
chain: MNIQIGELAKRTACPVVTIRFYEQEGLLPPPGRSRGNFRLYGEEHVERLQFIRHCRSLDMPLSDVRTLLSYRKRPDQDCGEVXMLLDEHIRQVESRIGALLELKHHLVELREACSGARPAQSCGILQXLSXCVCXTRGTTAHXSD

Tests used:
[1] = variants of: B1; test: sfGFP reporter fluorescence (15 h) (µM FITC); higher = higher leak; conditions: library round: Round 2; ligand: none
Protocol: (§1)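 Cell-free biosensing: 1 µL Echo-assembled CFE reactions with linear PbrR variant templates (5 nM) and pPbrR-sfGFP reporter, with 1 µM Pb, 30 µM Zn or no ligand; endpoint sfGFP fluorescence after 15 h at 30 °C calibrated as µM FITC. Round 2 ML-predicted PbrR mutants; up to 3 biological replicates.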

[2] = variants of: B1; test: sfGFP reporter fluorescence (15 h) (µM FITC); higher = stronger transcriptional activation; conditions: library round: Round 2
Protocol: as §1

| Variant | sfGFP reporter fluorescence [1] | sfGFP reporter fluorescence ([2]; ligand: 1 µM Pb) | sfGFP reporter fluorescence ([2]; ligand: 30 µM Zn) |
| --- | --- | --- | --- |
| MGSDA | 0.0442 ± 0.0017 | 0.0841 ± 0.0012 | 0.0513 ± 0.00078 |
| TGNDP I90L | 0.0469 ± 0.0017 | 0.0573 ± 0.0011 | 0.192 ± 0.014 |
| NGDAP P61N D64T E112I | 0.11 ± 0.014 | 0.308 ± 0.03 | 1.7 ± 0.2 |
| NGDDP D64K K104V R111A | 0.0829 ± 0.0096 | 0.354 ± 0.017 | 2.2 ± 0.44 |
| IGDDR K104V H106A | 0.0522 ± 0.00085 | 0.136 ± 0.0052 | 0.0496 ± 0.0028 |
| TGDDP L107I E112A | 0.0475 ± 0.0007 | 0.131 ± 0.0047 | 0.511 ± 0.039 |
| NGDDP M60L P61N D64K K104V L107C | 0.716 ± 0.071 | 2.14 ± 0.18 | 3.11 ± 0.31 |
| NGDDP M60F P61N D64K K104V | 0.395 ± 0.16 | 0.744 ± 0.16 | 2.04 ± 0.33 |
| TGSPP | 0.0436 ± 0.0022 | 0.125 ± 0.0052 | 0.305 ± 0.0072 |
| NGCDR K104R | 0.047 ± 0.0037 | 0.0672 ± 0.0019 | 0.0986 ± 0.0051 |
| NGCAY | 0.0505 ± 0.0017 | 0.0635 ± 0.0058 | 0.277 ± 0.0034 |
| NGCAL | 0.0515 ± 0.0016 | 0.0668 ± 0.0024 | 0.255 ± 0.022 |
| NGCAP S130A | 0.0466 ± 0.011 | 0.0819 ± 0.0045 | 0.429 ± 0.066 |
| NGDAT L85I | 0.0427 ± 0.0024 | 0.0595 ± 0.0027 | 0.809 ± 0.019 |
| TGHPY | 0.0455 ± 0.0011 | 0.116 ± 0.0064 | 0.214 ± 0.017 |
| TGCDT L129I | 0.0433 ± 0.0032 | 0.0464 | 0.0525 ± 0.0028 |
| TGDDP V108L E112F | 0.0469 ± 0.0011 | 0.0496 ± 0.0032 | 0.0846 ± 0.0051 |
| TGCDA | 0.0468 ± 0.0016 | 0.0758 ± 0.0041 | 0.0857 ± 0.0083 |
| TGCDI | 0.0463 ± 0.0019 | 0.0711 ± 0.0029 | 0.0916 ± 0.0046 |
| TGCDL | 0.045 ± 0.00089 | 0.0743 ± 0.011 | 0.0958 ± 0.0017 |
| TGCDT | 0.0478 ± 0.0007 | 0.0731 ± 0.0033 | 0.0847 ± 0.0041 |
| NGDPP M84A R111A | 0.0671 ± 0.0045 | 0.0854 ± 0.013 | 0.919 ± 0.12 |

| Variant | sfGFP reporter fluorescence [1] | sfGFP reporter fluorescence ([2]; ligand: 1 µM Pb) | sfGFP reporter fluorescence ([2]; ligand: 30 µM Zn) |
| --- | --- | --- | --- |
| NIAPP | 0.139 ± 0.0095 | 0.472 ± 0.03 | 2.03 ± 0.16 |
| NMDDP M60L P61N K104V L107C | 0.759 ± 0.1 | 1.83 ± 0.19 | 3.54 ± 0.46 |
| NGCDP P61N H106A | 0.0622 ± 0.0038 | 0.166 ± 0.0088 | 0.457 ± 0.079 |
| TGDAP E109L | 0.043 ± 0.0023 | 0.0797 ± 0.0069 | 0.366 ± 0.035 |
| NMDDP L107C E109V | 2.96 ± 0.17 | 3.18 ± 0.55 | 3.51 ± 0.14 |
| TIDDP P61N D64K | 0.106 ± 0.013 | 0.617 ± 0.019 | 1.75 ± 0.14 |
| TIDDP D64K K104V | 0.156 ± 0.022 | 0.472 ± 0.075 | 2.62 ± 0.29 |
| TIDSP L107C | 0.384 ± 0.026 | 1.42 ± 0.32 | 3.28 ± 0.26 |
| NGCDP V108I S115G | 0.0507 ± 0.0021 | 0.0573 ± 0.0016 | 0.115 ± 0.0092 |
| TGDDA E25V | 0.0619 ± 0.0073 | 0.072 ± 0.0079 | 0.252 ± 0.031 |
| NMDDP L85I K104V | 0.131 ± 0.013 | 0.417 ± 0.024 | 1.99 ± 1.7 |
| NGDRP P61N D64A | 0.111 ± 0.007 | 0.221 ± 0.0096 | 1.54 ± 0.25 |
| NGSAA K104R | 0.0641 ± 0.0074 | 0.097 ± 0.0024 | 1.05 ± 0.14 |
| TGDDP D64T R111L | 0.0779 ± 0.0063 | 0.151 ± 0.011 | 1.9 ± 0.12 |
| TGDDP D64T R111A | 0.09 ± 0.012 | 0.212 ± 0.024 | 2.38 ± 0.096 |
| NMDDP R96G K104V | 0.0669 ± 0.0034 | 0.0841 ± 0.003 | 0.58 ± 0.055 |
| NIDDP D64K V108E | 0.181 ± 0.026 | 0.581 ± 0.051 | 3.32 ± 0.42 |
| NHDDA V108L | 0.0477 ± 0.0017 | 0.0671 ± 0.0043 | 0.271 ± 0.03 |
| NIEDP L107C | 1.74 ± 0.23 | 2.69 ± 0.47 | 3.33 ± 0.68 |
| NGDRP D64T E88A | 0.369 ± 0.048 | 0.499 ± 0.14 | 3.13 ± 0.29 |
| TGDAL V108L | 0.0451 ± 0.0016 | 0.073 ± 0.0021 | 0.281 ± 0.0062 |
| NGSPA | 0.0677 ± 0.013 | 0.114 ± 0.019 | 0.999 ± 0.13 |
